# Measured values: US7829301B2, “Screening assays for binding antagonists of the AMD-associated variant of factor H (H384)” (The University of Manchester, priority 2006, dated 2010)
# B1: deglycosylated FMOD: fibromodulin from bovine articular cartilage treated with N-glycosidase F to remove N-linked oligosaccharides including keratan sulphate (protein)
# chain: QYEEDSHWWFQFLRNQQSTYDDPYDPYPYEPYEPYPYGGEEGPAYAYGSPPQPEPRDCPQECDCPPNFPTAMYCDNRNLKYLPFVPSRMKYVYFQNNQISSIQEGVFDNATGLLWIALHGNQITSDKVGKKVFSKLRHLERLYLDHNNLTRIPSPLPRSLRELHLDHNQISRVPNNALEGLENLTALYLHHNEIQEVGSSMKGLRSLILLDLSYNHLRKVPDGLPSALEQLYLEHNNVFSVPDSYFRGSPKLLYVRLSHNSLTNNGLASNTFNSSSLLELDLSYNQLQKIPPVSTNLENLYLQGNRINEFSISSFCTVVDVMNFSKLQVLRLDGNEIKRSAMPADAPLCLRLASLIEI
# Target: T1, full length FH (Homo sapiens, UniProt P08603)
# T1 construct: Purification of Full-Length Factor H from Human Serum; from tissue; host or cells: human serum
# Test: Binding of full length FH to untreated and N-glycosidase F-treated FMOD
# Settings: p<10-4 for all data points above zero
# Protocol: FMOD was isolated from bovine articular cartilage (Heinghrd et al., (1986) J. Biol. Chem. 261, 13866-13872) and recombinant CRP was obtained from Calbiochem. Deglycosylated FMOD was prepared by treatment with N-glycosiadase F (Roche Applied Science) as previously described (Sjöberg et al. (2005) J. Biol. Chem. 280, 32301-32308).
# CRP or FMOD was coated overnight at 4° C. onto microtiter plates (Maxisorp, Nunc) at a concentration of 10 μg/ml in 75 mM sodium carbonate buffer, pH 9.6. Wells treated only with coating buffer or 1% (w/v) BSA (Sigma) in coating buffer (for the assays involving FMOD) were used as negative controls. Between each step the wells were washed extensively with 50 mM Tris-HCl, 150 mM NaCl, 0.1% (v/v) Tween 20, pH 7.5. All wells were blocked with 1% (w/v) BSA (Sigma) in phosphate buffered saline (Invitrogen) for 1 hour at 37° C. […] The amount of bound protein was assessed using a goat polyclonal anti-FH antibody (Quidel, Cat # A312) followed by HRP-labeled anti-goat secondary antibodies (Dako) and the OPD development kit (Dako). Detection of biotinylated protein was performed using a StreptABComplex/HRP-kit from Dako, and in both cases the absorbance at 490 nm was measured to quantify protein binding.
# T1 sequence (P08603 19-1231): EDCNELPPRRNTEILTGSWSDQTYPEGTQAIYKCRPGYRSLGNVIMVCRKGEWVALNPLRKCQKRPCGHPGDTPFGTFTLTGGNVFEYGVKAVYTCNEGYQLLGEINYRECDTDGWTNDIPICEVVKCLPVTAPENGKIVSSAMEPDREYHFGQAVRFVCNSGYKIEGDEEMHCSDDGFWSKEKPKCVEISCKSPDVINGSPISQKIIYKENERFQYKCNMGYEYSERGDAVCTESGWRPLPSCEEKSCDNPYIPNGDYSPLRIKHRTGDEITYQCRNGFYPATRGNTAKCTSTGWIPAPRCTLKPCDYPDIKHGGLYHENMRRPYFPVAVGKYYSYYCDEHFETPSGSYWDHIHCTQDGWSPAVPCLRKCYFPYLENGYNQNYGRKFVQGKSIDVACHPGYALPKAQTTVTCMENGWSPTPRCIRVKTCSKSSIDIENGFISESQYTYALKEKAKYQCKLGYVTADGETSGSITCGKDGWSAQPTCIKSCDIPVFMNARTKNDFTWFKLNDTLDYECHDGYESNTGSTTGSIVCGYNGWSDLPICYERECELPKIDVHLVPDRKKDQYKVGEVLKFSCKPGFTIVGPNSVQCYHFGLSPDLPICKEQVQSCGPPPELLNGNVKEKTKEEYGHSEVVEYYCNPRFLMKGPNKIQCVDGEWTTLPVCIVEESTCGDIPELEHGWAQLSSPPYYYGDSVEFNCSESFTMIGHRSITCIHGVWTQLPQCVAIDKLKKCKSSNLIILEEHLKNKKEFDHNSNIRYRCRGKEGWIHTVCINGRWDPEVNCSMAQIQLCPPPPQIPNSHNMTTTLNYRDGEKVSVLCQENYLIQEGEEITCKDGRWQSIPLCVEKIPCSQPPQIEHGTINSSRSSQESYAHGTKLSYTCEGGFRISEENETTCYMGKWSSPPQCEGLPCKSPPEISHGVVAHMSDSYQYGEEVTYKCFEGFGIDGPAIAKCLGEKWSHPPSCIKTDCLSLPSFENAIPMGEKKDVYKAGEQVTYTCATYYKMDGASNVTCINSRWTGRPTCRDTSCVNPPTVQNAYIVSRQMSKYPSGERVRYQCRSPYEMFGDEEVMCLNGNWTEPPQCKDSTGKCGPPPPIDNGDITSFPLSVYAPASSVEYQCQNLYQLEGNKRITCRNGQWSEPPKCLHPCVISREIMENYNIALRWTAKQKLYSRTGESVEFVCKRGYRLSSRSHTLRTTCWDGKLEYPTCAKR
molecule,measurement,value
B1,binding of FH compared to keratan sulphate-containing FMOD,significantly better
